# Test results from article PMC6954420.
# Target: HP1α (mouse) (UniProt Q61686)
# Assay: BLI
# Settings: K+, BLI: 100 mM KCl, 50 mM NaCl, 20 mM Na phosphate, pH 8 (G4) or pH 7 (i-motif, dsDNA), room temp, 500 nM oligo or titration, EMSA: 50 mM Tris-HCl pH 7.5, 100 mM …
# Sequence of HP1α (mouse) (Q61686 whole entry): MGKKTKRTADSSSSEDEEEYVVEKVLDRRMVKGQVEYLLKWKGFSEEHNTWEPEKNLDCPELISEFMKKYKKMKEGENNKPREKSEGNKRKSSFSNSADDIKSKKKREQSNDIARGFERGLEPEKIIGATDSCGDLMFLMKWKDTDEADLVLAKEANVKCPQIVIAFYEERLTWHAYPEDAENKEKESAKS
substance,measurement,setting,value
TERRA22,Kd,,940 nM
TERRA45,Kd,Fig S2 gives error 0.4,74.4 nM
TERRA96,Kd,,2.5 nM
